Results published in patent US20210000940A1.
Where two headings read alike, the source gives them in different places.

Columns and labels:
[1] = molecular target: Andes virus glycoprotein Gc, wild type (Andes orthohantavirus CHI-7913) (UniProt Q9E006)
[2] = molecular target: Andes virus glycoprotein Gc, wild type (Andes orthohantavirus CHI-7913) (UniProt Q9E006); remark: listed apart in the source

Substance “Andes virus glycoprotein Gn, wild type (from UniProt Q9E006 19-651)” has a melting temperature (Tm) of temperature-induced Gn/Gc dissociation [1] of 36.3 °C and a melting temperature (Tm) of temperature-induced Gn/Gc dissociation [2] of 37.7 °C.
